Sequences and labels used below:
B1: CTxA_(I124-F132) peptide, 5-FAM labelled, wild-type sequence (peptide)
peptide: IYGWYRVHF
modifications: also: 5-FAM labelled, position not given here

Common to all, as to assay: […]
Test [1] has as its target T1, His6-IRE1αLD (human, UniProt O75460 24-443).
T1 sequence: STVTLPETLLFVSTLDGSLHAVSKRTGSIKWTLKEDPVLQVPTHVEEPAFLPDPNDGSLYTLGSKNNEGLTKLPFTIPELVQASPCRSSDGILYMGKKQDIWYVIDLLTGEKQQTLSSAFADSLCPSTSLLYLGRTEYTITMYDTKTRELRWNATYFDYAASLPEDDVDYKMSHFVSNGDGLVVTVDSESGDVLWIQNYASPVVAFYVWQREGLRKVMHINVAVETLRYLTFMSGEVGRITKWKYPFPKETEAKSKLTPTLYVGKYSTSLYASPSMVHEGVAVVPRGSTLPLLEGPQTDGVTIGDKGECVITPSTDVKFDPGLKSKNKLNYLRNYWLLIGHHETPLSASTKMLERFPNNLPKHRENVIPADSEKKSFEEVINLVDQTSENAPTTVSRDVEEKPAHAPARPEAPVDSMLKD

The target in test [2] is T1, His6-IRE1αLD. This is another data set of the same source.
The target in test [3] is B1.

Read-outs that look alike come from different tables or passages of the source. Where no end group is shown, it is not given here. The star is where a group is joined. 5FAM = O=C1OC2(c3ccc(O)cc3Oc3cc(O)ccc32)c2ccc(C(=O)*)cc21

Turning to B1, the binding result with His6-IRE1αLD [1] is reported as “binds”.

Take YWLLIGHHETPL [unlabeled IRE1α_(Y358-L369) peptide, wild-type sequence]: the binding result with His6-IRE1αLD [2] is listed as “binds”. In addition, the “fold weaker affinity than either peptide alone binding to IRE1αLD” value in test [3] is ≥ 10 fold.

In the case of 5FAM-YWLLIGHHETPL [IRE1α_(Y358-L369) peptide, 5-FAM labelled, wild-type sequence], binding with His6-IRE1αLD [1] was put at a Kd of 0.24 mM.

As to 5FAM-YLAWYQQKP [human IgG light chain variable domain (VL) peptide, 5-FAM labelled], the Kd (as a rule, the constant that tells how readily two partners part at equilibrium) with His6-IRE1αLD [1] was 219 mM.

(Values after paper PMC10996581 (The Journal of Cell Biology, 2024).)
